Reference: patent US20110118131A1 (published 2011)
Positions count from the first letter of the chain named. In names and notes the source's numbering stands.

B1: XPA23 Fab, heavy chain Y107S (Fab, V domains shown)
VH: EVQLLESGGGLVQPGGSLRLSCAASGFTFSKYFMFWVRQAPGKGLEWVSVISPSGGMTRYADSVKGRFTISRDNSKNTLYLQMNSLRAEDTAVYYCARVGYGGNSDSWGQGTLVTVSS
VL: DIQMTQSPSSVSASVGDRLTIICRASQDINRWLAWYQQTPGNAPKLLIHSATSLQSGVPSRFSGSGSGTDFTLTINSLQPEDFATYYCQQADSFPLTFGGGTKVEIK
B2: XPA23 Fab, heavy chain Y107R (Fab, V domains shown)
VH: B1 VH with S107R
VL: B1 VL
B3: XPA23 Fab, heavy chain Y107K (Fab, V domains shown)
VH: B1 VH with S107K
VL: B1 VL
B4: XPA23 Fab, heavy chain Y107W (Fab, V domains shown)
VH: B1 VH with S107W
VL: B1 VL
B5: XPA23 Fab, heavy chain Y107N (Fab, V domains shown)
VH: B1 VH with S107N
VL: B1 VL
B6: XPA23 Fab, heavy chain Y107Q (Fab, V domains shown)
VH: B1 VH with S107Q
VL: B1 VL
B7: XPA23 light chain A51D (Fab, V domains shown)
VH: B1 VH with S107Y
VL: B1 VL with A51D
B8: XPA23 light chain A51L (Fab, V domains shown)
VH: B1 VH with S107Y
VL: B1 VL with A51L
B9: XPA23 light chain A51R (Fab, V domains shown)
VH: B1 VH with S107Y
VL: B1 VL with A51R
B10: XPA23 light chain A51G (Fab, V domains shown)
VH: B1 VH with S107Y
VL: B1 VL with A51G
B11: XPA23 light chain A51E (Fab, V domains shown)
VH: B1 VH with S107Y
VL: B1 VL with A51E
B12: XPA23 light chain A51F (Fab, V domains shown)
VH: B1 VH with S107Y
VL: B1 VL with A51F
B13: XPA23 light chain A51Q (Fab, V domains shown)
VH: B1 VH with S107Y
VL: B1 VL with A51Q
B14: XPA23 light chain A51H (Fab, V domains shown)
VH: B1 VH with S107Y
VL: B1 VL with A51H
B15: XPA23 light chain A51N (Fab, V domains shown)
VH: B1 VH with S107Y
VL: B1 VL with A51N
B16: XPA23 light chain A51I (Fab, V domains shown)
VH: B1 VH with S107Y
VL: B1 VL with A51I
B17: XPA23 light chain A51P (Fab, V domains shown)
VH: B1 VH with S107Y
VL: B1 VL with A51P

Each binder was assayed against T1, IL-1beta (UniProt P01584 117-269) (assay: Biacore).
T1 construct: also called IL-1β

Row | fold difference in affinity vs parental | binding result | Binder
1 | 0.89 fold | – | B1
2 | 0.85 fold | – | B2
3 | 0.82 fold | – | B3
4 | 0.89 fold | – | B4
5 | – | no binding | B5
6 | 0.87 fold | – | B6

Each binder was assayed against T2, IL-1β (UniProt P01584 117-269) (assay: Biacore, periplasmic extract).
T2 construct: Antigen immobilised on the Biacore chip

Row | fold difference in affinity vs original | binding result | Binder
7 | 0.13 fold | – | B7
8 | 0.16 fold | – | B8
9 | 0.18 fold | – | B9
10 | 3.84 fold | – | B10
11 | 0.29 fold | – | B11
12 | – | no binding | B12
13 | 0.24 fold | – | B13
14 | 0.61 fold | – | B14
15 | 0.3 fold | – | B15
16 | – | no binding | B16
17 | 0.13 fold | – | B17
